This series relates to ATP. In words: switch fluorescence ratio, 500 uM ATP over buffer (Cy3 cluster intensity, sum of 5 cycles each) (fold (ratio)); higher = stronger signal-on switching upon ATP binding; sequences stand for … in TCGTCGGCAGCGTCAGATGTGTATAAGAGACAGTTTTTTTTTTTTTTTTTTTTTTTTT…TC. To be noted: aptamer strand: ATP DNA aptamer (quencher-CACCTGGGGGAGTATTGCGGAGGAAGG + anchor), 100 nM annealed; ATP concentration: 500 uM. Put shortly:
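Cy3-labelled switching-strand clusters on a modified Illumina MiSeq flow-cell were annealed to 100 nM quencher-labelled ATP aptamer and imaged first in selection buffer, then after 15 min with 500 uM ATP at 22 °C. NaOH stripping and re-annealing separated each of five buffer/ATP cycles, and clusters outside 100-1000 RFU were excluded. The fluorescence ratio sums target-cycle Cy3 intensity over buffer-cycle Cy3 intensity per cluster and averages it per switch-domain sequence.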

± gives the standard deviation of the averaged measurements.
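Also: ATP exposure 15 min at 22 °C before imaging.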

For the sequence TTTAAAGCGC, the switch fluorescence ratio was found to be 1.02 ± 0.043.
To AATATAGCGT belongs 0.969 ± 0.021; to GGGATGGGCT, 1.01 ± 0.014; to AATGTTATGG, 0.9801 ± 0.0031.
With CCGGCTGAGG the figure was 1.03 ± 0.017; with GTGGATTGTG, 0.971 ± 0.067; with CCGGCTAGTG, 1.03 ± 0.034.
To CGTAGCATCG belongs 1.1 ± 0.038; to TGGGGATACT, 1.04 ± 0.036; to GGGCAAAGGA, 0.993 ± 0.011.
On to TTTTTATTGG, for which the switch fluorescence ratio amounted to 0.985 ± 0.025.
Turning to CACCGGGGTG, the switch fluorescence ratio is 0.995 ± 0.13.
With AGGAATTGAT the figure was 1.13 ± 0.27; with GATCAGTGTT, 0.9783 ± 0.0093.
To CAAAAAGAGC belongs 0.976 ± 0.015; to GGCAGAGTTC, 0.991 ± 0.013; to TCATCGGCTC, 1.32 ± 0.11.
With TTTTCGCTGT the figure was 1.02 ± 0.016.
Take CGGGTGGGGA: the switch fluorescence ratio was 1.01 ± 0.04.
To GACTGGAGGA belongs 0.9851 ± 0.008; to AGAGCATATG, 1.02 ± 0.017; to AGCGTCTTGC, 1.01 ± 0.059.
To GGCGTAATTG belongs 1 ± 0.032; to AATCTGCTCG, 0.9864 ± 0.002; to AAGGATTCCA, 0.981 ± 0.014.
To GTCATAGTTA belongs 0.983 ± 0.017; to CTTGTCTTAA, 1.02 ± 0.029; to TAGGGGAAAA, 1.02 ± 0.019.
With TTATTTGTTT, the switch fluorescence ratio stood at 0.977 ± 0.018.
With TTTTTTTTGT the figure was 1 ± 0.035; with TTCCAATAGG, 1.13 ± 0.21.
Regarding GGGGCGTTCG, the switch fluorescence ratio was 1 ± 0.071.
With CATTTTGGGA the figure was 0.979 ± 0.03.
Consider TACCCGCGCG, for which the switch fluorescence ratio was 1.026 ± 0.003.
To TTTGGCTTGG belongs 0.992 ± 0.031.
Turning to TTAGGGGGAC, the switch fluorescence ratio was found to be 1 ± 0.041.
To TTAAAGGGC belongs 0.973 ± 0.08; to GGCTGGCAGC, 1 ± 0.016; to ACTCCTAACC, 1.26 ± 0.047.
To GCTCCTGTTA belongs 1.11 ± 0.027; to ACGACCGGCA, 1.11 ± 0.098; to AGGGGTTAAG, 0.954 ± 0.024.
With TTAGAGGCCC the figure was 1.01 ± 0.032.
With ATTGATAGCA, the switch fluorescence ratio came out at 1.03 ± 0.028.
With GTAGCAACGG the figure was 1.59 ± 0.1; with GTTGTAGCCA, 0.966 ± 0.043.
To TATCTTTAGT belongs 0.989 ± 0.015; to ATGGGCTATA, 1.03 ± 0.094; to CACCTAGGCT, 1.055 ± 0.0048.
With TTTGGGAGGG the figure was 0.969 ± 0.02; with AGTTAAGAT, 1.01 ± 0.022; with GCCTGAAAGC, 0.9912 ± 0.0054.
TCCCATGTTG: the switch fluorescence ratio is 1.05 ± 0.054.
With GAGATTGCGG the figure was 0.9849 ± 0.0012.
To TTATTTGACT belongs 1.01 ± 0.041.
With TTTAGGCCTC the figure was 1.01 ± 0.014.
Consider ACAAGATACA, for which the switch fluorescence ratio worked out at 1.03 ± 0.021.
Take AAAGAGAGTA: the switch fluorescence ratio turned out to be 1.01 ± 0.038.
With TTAACGAACG the figure was 1.15 ± 0.083.
With TGCTTTGGGG the figure was 0.982 ± 0.071; with GCTGGAAAAT, 1 ± 0.013; with AATAGTTAGG, 1.02 ± 0.012.
With ACCGTCCCCA the figure was 1.26 ± 0.11; with CGTGCATATC, 2.51 ± 0.17; with GCGAGGCCCG, 0.9944 ± 0.0017.
As to GTAATTTTTT, the switch fluorescence ratio stood at 1.02 ± 0.031.
To GGGGTTTTAT belongs 1.01 ± 0.018; to TGGGGGAGG, 0.9974 ± 0.0058.
With CGGGAATTAA the figure was 0.997 ± 0.03; with GGGAAAAATC, 2.06 ± 1.5.
To ACTCATGTTG belongs 0.98166 ± 0.00011; to TCGGTTGAAG, 0.988 ± 0.017.
For the sequence GATGCGGTTA, the switch fluorescence ratio was 0.988 ± 0.031.
With TTGCTGGAAT the figure was 1.06 ± 0.095; with GAGCTACTGA, 1.011 ± 0.0085; with TTTGAATGCT, 0.952 ± 0.046.
With TGTCTACTCT the figure was 1 ± 0.022; with GAAAAGGGTT, 0.978 ± 0.032; with ACGTTATGTT, 1.1 ± 0.035.
With AAGGAAGACT the figure was 0.974 ± 0.021; with ACAGGCCAGC, 1.01 ± 0.022.
Turning to GAGGTAAAGC, the switch fluorescence ratio came out at 1 ± 0.08.
As to TTGTTCGGTT, the switch fluorescence ratio is 0.998 ± 0.024.
To TTTGCTGTTG belongs 0.965 ± 0.037; to GCCTATGCAA, 1.48 ± 0.021.
With TGGGTTGTCG the figure was 1.02 ± 0.016; with CGGTACGGGT, 0.992 ± 0.025; with TTATTAAGGG, 0.98 ± 0.047.
To CATTTGAGGG belongs 0.988 ± 0.034; to TGCGGGGAGC, 0.975 ± 0.041.
Consider CCTTGGCCGA, for which the switch fluorescence ratio worked out at 1.17 ± 0.0041.
With CGGGTTTGTG the figure was 0.973 ± 0.032.
To AGTGGGAGTG belongs 0.983 ± 0.034; to AGATGGTTTC, 0.993 ± 0.042; to AAGTTAGACA, 1.021 ± 0.0087.
With AAGTAGGCGC the figure was 0.9958 ± 0.008; with TTAGGGCTTA, 0.995 ± 0.013.
For the sequence CCATGGCGGT, the switch fluorescence ratio came out at 1.05 ± 0.033.
With TGGGATTAGT the figure was 0.9868 ± 0.00058; with TACTTAATAG, 1.03 ± 0.0015; with GATTTGCGGG, 0.9833 ± 0.0069.
With CGTTTAGATA the figure was 1 ± 0.042; with GAGTAGCATG, 0.993 ± 0.022.
With ATGGTACACC the figure was 1.04 ± 0.013; with TGTATATCTA, 1.02 ± 0.025.
For ATTTGAGGGC, the switch fluorescence ratio was 1.01 ± 0.033.
To ACGGGCCTTC belongs 1.03 ± 0.012; to TTTATTTGAC, 1.03 ± 0.053.
With AATGCGGGGA the figure was 1.03 ± 0.017; with CATCGTGACT, 0.994 ± 0.028; with ATGCTTTCAG, 0.983 ± 0.012.
On to GGTTTAGTGG, for which the switch fluorescence ratio is 1 ± 0.031.
With GAGGTTAGGT the figure was 0.981 ± 0.01; with GGGCACTCGC, 0.999 ± 0.033.
Consider ATAGAGCTTG, for which the switch fluorescence ratio was found to be 0.997 ± 0.024.
To TACCGCTTGC belongs 2.01 ± 0.53; to AGGTGCTGTG, 1.01 ± 0.051; to TGGGGTCTGT, 0.993 ± 0.02.
With TGTGACAATG the figure was 0.997 ± 0.012.
To CGTTACTAAC belongs 1.12 ± 0.02.

The values above are taken from the supplement of paper PMC10126150.
